Read-outs that look alike come from different tables or passages of the source. One block for each binder: values may come before it.
Columns and labels:
[1] = molecular target: T1, recombinant human Ang2-FLD (human, UniProt O15123 275-496, limits assumed); assay: ProteOn off-rate assay, periplasmic extracts over coated human Ang2-FLD
T1 construct: domain: FLD; not used
T1 sequence (looked up): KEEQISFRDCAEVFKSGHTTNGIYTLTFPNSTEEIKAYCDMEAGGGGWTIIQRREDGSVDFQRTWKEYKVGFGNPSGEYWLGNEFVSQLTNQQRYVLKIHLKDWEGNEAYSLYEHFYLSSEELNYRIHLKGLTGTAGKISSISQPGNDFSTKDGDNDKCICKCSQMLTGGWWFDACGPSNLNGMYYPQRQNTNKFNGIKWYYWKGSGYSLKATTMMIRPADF
Protocol: In a first cycle, amino acid substitutions are introduced randomly in both framework (FW) and complementary determining regions (CDR) using the error-prone PCR method. […] After a polish step, PCR products are inserted via unique restriction sites into a vector designed to facilitate phage display of the VHH library. […] Periplasmic extract of affinity matured clones is diluted 1:10 and injected across the “analyte channels” A1-A6.

[2] = molecular target: T2, FLAG-tagged cynomolgus Ang2 (cynomolgus, UniProt O15123 19-496 (human entry), limits assumed); assay: competition ELISA: FLAG-cAng2 binding to coated cTie2-Fc
T2 construct: N-terminally FLAG-tagged, conditioned medium of HEK293T cells; also called cAng2; FLAG-cAng2
T2 chain: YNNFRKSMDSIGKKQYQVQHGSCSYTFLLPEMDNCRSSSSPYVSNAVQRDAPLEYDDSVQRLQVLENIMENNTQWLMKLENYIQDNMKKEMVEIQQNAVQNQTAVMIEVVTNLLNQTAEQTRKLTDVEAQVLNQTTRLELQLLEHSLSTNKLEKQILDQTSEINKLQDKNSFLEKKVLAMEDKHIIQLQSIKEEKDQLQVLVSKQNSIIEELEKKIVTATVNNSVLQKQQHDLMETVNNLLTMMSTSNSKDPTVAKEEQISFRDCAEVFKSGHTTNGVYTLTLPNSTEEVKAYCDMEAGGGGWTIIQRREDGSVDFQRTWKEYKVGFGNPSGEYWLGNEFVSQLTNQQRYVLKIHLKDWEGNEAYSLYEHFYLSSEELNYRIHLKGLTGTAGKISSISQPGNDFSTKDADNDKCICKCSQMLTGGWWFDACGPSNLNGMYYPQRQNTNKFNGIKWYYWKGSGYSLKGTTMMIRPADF
Protocol: (§1) In brief, 2 μg/mL of recombinant mouse Tie2-Fc or cyno Tie2-Fc is coated overnight at 4° C. in a 96-well MaxiSorp plate (Nunc, Wiesbaden, Germany). Coated wells are blocked with a 1% casein solution.

FLAG-tagged mouse Ang2 [3] = molecular target: T3, FLAG-tagged mouse Ang2 (mouse, UniProt O35608 19-496); assay: competition ELISA: FLAG-mAng2 binding to coated mTie2-Fc
T3 construct: N-terminally FLAG-tagged, conditioned medium of HEK293T cells; also called mAng2; FLAG-mAng2
T3 sequence: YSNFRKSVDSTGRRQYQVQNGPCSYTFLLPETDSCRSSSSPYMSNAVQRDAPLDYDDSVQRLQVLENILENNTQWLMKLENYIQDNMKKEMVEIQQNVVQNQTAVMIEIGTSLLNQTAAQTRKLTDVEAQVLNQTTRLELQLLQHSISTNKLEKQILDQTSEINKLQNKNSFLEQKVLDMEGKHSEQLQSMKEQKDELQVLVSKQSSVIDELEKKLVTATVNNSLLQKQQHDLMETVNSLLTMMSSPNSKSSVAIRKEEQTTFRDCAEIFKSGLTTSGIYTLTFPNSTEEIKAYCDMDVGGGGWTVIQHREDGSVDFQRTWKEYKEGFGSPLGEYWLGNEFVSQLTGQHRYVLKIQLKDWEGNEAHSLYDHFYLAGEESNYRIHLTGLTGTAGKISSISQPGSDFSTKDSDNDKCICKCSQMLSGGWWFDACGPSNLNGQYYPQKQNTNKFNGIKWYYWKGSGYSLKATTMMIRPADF
Protocol: as §1

FLAG-tagged mouse Ang2 [4] = molecular target: T3, FLAG-tagged mouse Ang2; assay: as above; remark: listed apart in the source
Protocol: as §1

[5] = molecular target: T2, FLAG-tagged cynomolgus Ang2; assay: competition ELISA: FLAG-cAng2 binding to coated cTie2-Fc
Protocol: as §1

[6] = molecular target: T4, recombinant mouse Ang2-FLD (mouse, UniProt O35608 275-496, limits assumed); assay: SPR (Biacore T100), VHH immobilized, Ang2-FLD injected
T4 construct: domain: FLD
T4 sequence (looked up): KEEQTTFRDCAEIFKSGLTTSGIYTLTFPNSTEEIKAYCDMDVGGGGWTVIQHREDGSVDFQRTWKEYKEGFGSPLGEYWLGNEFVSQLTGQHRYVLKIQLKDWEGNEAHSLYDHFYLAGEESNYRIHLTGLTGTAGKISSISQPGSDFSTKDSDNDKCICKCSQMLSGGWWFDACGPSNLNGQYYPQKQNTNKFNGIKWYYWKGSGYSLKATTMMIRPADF

[7] = molecular target: T5, recombinant cynomolgus Ang2-FLD (cynomolgus, UniProt A0A2K5VNX6 275-496); assay: as above
T5 construct: domain: FLD; also called cyno Ang2-FLD
T5 sequence: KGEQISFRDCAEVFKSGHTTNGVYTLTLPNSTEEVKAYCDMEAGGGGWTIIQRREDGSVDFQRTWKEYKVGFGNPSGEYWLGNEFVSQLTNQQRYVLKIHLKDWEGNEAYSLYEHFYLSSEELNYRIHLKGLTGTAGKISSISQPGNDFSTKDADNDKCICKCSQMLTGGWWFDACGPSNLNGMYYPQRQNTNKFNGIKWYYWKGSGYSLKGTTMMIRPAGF

recombinant rat Ang2-FLD = molecular target: T6, recombinant rat Ang2-FLD (rat, UniProt O35462 275-496, limits assumed); assay: as above
T6 construct: domain: FLD
T6 sequence (looked up): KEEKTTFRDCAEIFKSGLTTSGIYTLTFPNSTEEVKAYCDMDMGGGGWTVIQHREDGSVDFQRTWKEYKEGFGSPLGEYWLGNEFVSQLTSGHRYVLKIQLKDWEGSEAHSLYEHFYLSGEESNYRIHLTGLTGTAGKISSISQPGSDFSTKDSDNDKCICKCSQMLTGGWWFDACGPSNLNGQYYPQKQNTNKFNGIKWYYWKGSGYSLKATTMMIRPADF

[8] = molecular target: T7, recombinant human Ang2-FLD (human, UniProt O15123 275-496, limits assumed); assay: as above
T7 construct: domain: FLD
T7 sequence (looked up): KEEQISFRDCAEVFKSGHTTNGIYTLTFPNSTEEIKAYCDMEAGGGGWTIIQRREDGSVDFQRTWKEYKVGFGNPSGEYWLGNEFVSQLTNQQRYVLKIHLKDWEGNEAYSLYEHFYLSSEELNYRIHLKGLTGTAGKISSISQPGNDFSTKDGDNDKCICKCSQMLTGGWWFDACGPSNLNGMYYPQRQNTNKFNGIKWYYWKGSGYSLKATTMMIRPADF

- fold improvement (off-rate against VHH 00027) [1]: 2 fold
B1: variant(s) of VHH 00027 carrying A24V (VHH, name in Kabat numbering)
VHH: EVQLVESGGGLVQAGGSLRLSCAVSGFTLDDYAIGWFRQAPGKEREGVSSIRDNDGSTYYADSVKGRFTISSDNDKNTVYLQMNSLKPEDTAVYYCAAVPAGRLRFGEQWYPLYEYDAWGQGTLVTVSS
notes: not shown: C-terminal c-myc tag and His6 tag

- IC50 [2]: 2.1 nM
- IC50 (FLAG-tagged mouse Ang2 [3]): 5.7 nM
- IC50 (FLAG-tagged mouse Ang2 [4]): 5.7 nM
- IC50 [5]: 2.1 nM
B2: VHH 28D10 (VHH, not shown: small tags and cut ends)
VHH: EVQLVESGGGLVQAGGSLRLSCAASGFTLDDYAIGWFRQAPGKEREGVSCIRDSDGSTYYADSVKGRFTISSDNDKNTVYLQMNSLKPEDTAVYYCAAVPAGRLRFGEQWYPLYEYDAWGQGTQVTVSS
notes: Parental llama VHH; also called 028D10

- fold improvement (off-rate against VHH 00027) [1]: 9.4 fold
B3: variant(s) of VHH 00027 carrying F27L and L100iI (VHH)
VHH: EVQLVESGGGLVQAGGSLRLSCAASGLTLDDYAIGWFRQAPGKEREGVSSIRDNDGSTYYADSVKGRFTISSDNDKNTVYLQMNSLKPEDTAVYYCAAVPAGRLRFGEQWYPIYEYDAWGQGTLVTVSS
notes: also called L100il

- IC50 (FLAG-tagged mouse Ang2 [3]): 1.8 nM
- Kd [6]: 3 nM
- koff [6]: 0.0039 s⁻¹
- kon [6]: 1.3e+06 M⁻¹ s⁻¹
- Kd [7]: 0.54 nM
- koff [7]: 0.0012 s⁻¹
- kon [7]: 2.3e+06 M⁻¹ s⁻¹
- Kd (recombinant rat Ang2-FLD): 10 nM
- koff (recombinant rat Ang2-FLD): 0.005 s⁻¹
- kon (recombinant rat Ang2-FLD): 500000 M⁻¹ s⁻¹
- Kd [8]: 1.6 nM
- koff [8]: 0.0015 s⁻¹
- kon [8]: 950000 M⁻¹ s⁻¹
- IC50 [5]: 0.7 nM
B4: VHH 00919 (VHH, not shown: small tags and cut ends)
VHH: EVQLVESGGGLVQPGGSLRLSCAASGFTLDDYAIGWFRQAPGKEREGVSAIRDNGGSTYYADSVKGRFTISSDNSKNTVYLQMNSLRPEDTAVYYCAAVPAGRLRFGEQWYPLYEYDAWGQGTLVTVSS

— US20230203146A1 (Boehringer Ingelheim, published 2023)
